Data reported in the DeepSol protein solubility set.

Assay: soluble on expression in E. coli; label from the status in PepcDB or PDB records

Sequence | soluble on expression in E. coli
MGSDKIHHHHHHMSTFIFPGDSFPVDPTTPVKLGPGIYCDPNTQEIRPVNTGVLHVSAKGKSGVQTAYIDYSSKRYIPSVNDFVIGVIIGTFSDSYKVSLQNFSSSVSLSYMAFPNASKKNRPTLQVGDLVYARVCTAEKELEAEIECFDSTTGRDAGFGILEDGMIIDVNFNFARQLLFNNDFPLLKVLAAHTKFEVAIGLNGKIWVKCEELSNTLACYRTIMECCQKNDTAAFKDIAKRQFKEILTVKEE | not soluble
MGSSHHHHHHSSGRENLYFQGHMSKPIVMERGVKYRDADKMALIPVKNVATEREALLRKPEWMKIKLPADSTRIQGIKAAMRKNGLHSVCEEASCPNLAECFNHGTATFMILGAICTRRCPFCDVAHGRPVAPDANEPVKLAQTIADMALRYVVITSVDRDDLRDGGAQHFADCITAIREKSPQIKIETLVPDFRGRMDRALDILTATPPDVFNHNLENVPRIYRQVRPGADYNWSLKLLERFKEAHPEIPTKSGLMVGLGETNEEIIEVMRDLRRHGVTMLTLGQYLQPSRHHLPVQRYVSPDEFDEMKAEALAMGFTHAACGPFVRSSYHADLQAKGMEVK | soluble
MGSDKIHHHHHHLADVIYQAQPPLEFIPPAFNPLFLRFVHLLLPSWINWQTPITQIEADNVEVLVDLYRQFQEGKIRFMLAFRHPKTDDPFCLAYLLSQLVPKIARSQGTTLQLPIHAHFIYDRGIPLWAGSYVGWIASRLGGTPIQRGKADWTGLRSARDLFANGKFPMAAAPEGATNGLSENISPLEPGIAQLGFWCAEDLHKAERPEQVLIVPVGIKYSYVDAPWDAIANLLSELEAASGLPVNSAENASIESLYPRLLALAEHLLLLMEEFYTRFYHQKLPDSKIVNGQIPDRNEALAVRLQALLNAALLISEQYFNLQSKGSLSDRCRRVEQAGWNYIFREEFKDVKGVSAVERALGDRVAEEANARMWHMRLVESFVAVSGNYIRENPTVERFAETTLILWQMIAKIKGDKGVQRPQLGKQKVKITVGEPISISEHYPAYKENRLGARQAVADVTNDLQHALEGLI | not soluble
MSDPYPATEAHAQRAAKSPPKSLLDRLLSLVRREPEDREGIKAILEAAHERELLDAESYAMIKGALAVSERTVADIMVPRSRMDLLDISQPLPQLLATIIETAHSRFPVYEDDRDNIIGILLAKDLLRYMLEPALDIRSLVRPAVFIPEVKRLNVLLREFRASRNHLAIVIDEHGGISGLVTMEDVLEQIVGDIEDEFDEDEEESIFPEGENQWRLTASTDISHFNATFATDLPDDEYDSVGGWLGGQLGRIPRRGDSADHDGLHIEVVRADARRALWLRVRRNAGAQPPASAAE | soluble
AHHHHHHGSLIVVRPGRKKNELEAFIIENPPEKLSQRRNLKADRVVRLIMRDNRLFKALEGSQYLNPKEVERALRNSRIVLVNANEWEEYFKKRLMNKRVEKADICRLCLLNGKITVLTEGNRIRYRDEYICESCAEEELKRELRFRFNSIGMLEQAKKLLERFRDLDKVISIFDPSFDPTKHPEITKWDELKAKHIRVEKMHIDELNIPEEFKKVLKAEGINELLPVQVLAIKNGLLEGENLLVVSATASGKTLIGELAGIPKALKGKKMLFLVPLVALANQKYEDFKRRYSKLGLKVAIRVGMSRIKTKEEPIVLDTGTDAHIIVGTYEGIDYLLRAGKKIGNVGTVVIDEIHMLDDEERGARLDGLIARLRKLYSNAQFIGLSATVGNPQELARKLGMKLVLYDERPVDLERHLIIARNESEKWRYIAKLCKAEAMRKSEKGFKGQTIVFTFSRRRCHELASFLTGQGLKAKAYHSGLPYVQRKLTEMEFQAQMIDVVVTTAALGAGVDFPASQVIFESLAMGNKWITVREFHQMLGRAGRPQYHEKGKVYIIVEPGKKYSAQMEGTEDEVALKLLTSPIEPVIVEWSDEFEEDNVLAHACVFNRLKVIEEVQSLCLGANQSAKNVLEKLMEKGLVKIYGDKVEATPYGRAVSMSFLLPREAEFIRDNLESTDPIEIAIKLLPFENVYLPGSLQREIESAVRGKISSNIFSSSFASVLEELDKIIPEISPNAAERLFLIYQDFFNCPEQDCTEFAMERIGRKIIDLRREGYEPSKISEHFRKVYALILYPGDVFTWLDGIVRKLEAIERIARVFNKRRVVEDTIRVRREIEEGKILKGERR | not soluble
MPVLHNRISNDELKAKMLAESEPRTTISFYKYFTIASPQQTRDALYQVFTALDVFGRVYLAHEGINAQISVPQSKLETFRQQLYTFDPALDGVRLNIALEDDGKSFWVLRMKVRDRIVADGIDDPTFDASNVGDYLKAADVNAMLDDPDAVFIDMRNHYEYEVGHFENALEIPADTFREQLPKAVEMLREHADKKIVMYCTGGIRCEKASAWMKHNGFNKVWHIEGGIIEYARRARAQGLPVRFIGKNFVFDERMGERISDEVIAHCHQCGASCDSHTNCKNDGCHLLFIQCPQCASKFNGCCSEQCCEELALPEEEQRRRRAGRENGNKIFNKSRGRLNSKLSIPDPAEAAALEHHHHHH | soluble
